According to PMC12072002, “Site-Directed Mutagenesis Increased the Catalytic Activity and Stability of Oenococcus oeni β-Glucosidase: Characterization of Enzymatic Properties and Exploration of Mechanisms” (International Journal of Molecular Sciences, 2025):
Marks after values point to notes of the source that are not given here.

Tests used:
Experiment in all cases: p-Nitrophenol release read at 420 nm after Na2CO3 stop, 0.1-25 mM substrate in 20 mM sodium phosphate buffer at each enzyme's optimum (wild type pH 5.0, 50 °C; mutant III pH 3.5, 50 °C; mutant IV pH 4.0, 45 °C), Hill function fit in Origin.
Type in all cases: biochemical
[1] = substrate: O=[N+]([O-])c1ccc(O[C@@H]2OC[C@@H](O)[C@H](O)[C@H]2O)cc1
Protocol: (§1) 3.9. Enzymatic Reaction Kinetics and Substrate Specificity
(§2) The determination of enzymatic reaction kinetics was conducted according to Zhang et al., with slight modifications. Different concentrations (0.1 mM, 0.2 mM, 0.5 mM, 1.0 mM, 2.0 mM, 5.0 mM, 8.0 mM, 10 mM, 12 mM, 15 mM, 20 mM and 25 mM) of p-NPG substrate solutions were prepared with 20 mM sodium phosphate buffer. Then, 100 μg of enzyme lyophilized powder were added to 500 μL of p-NPG solutions at different concentrations. Next, this was reacted for 0 min, 5 min, 10 min, 15 min, 20 min, 25 min and 30 min under optimal reaction conditions, and at the end of each set of reactions, 500 μL 1 M of Na2CO3 solution were added to terminate the reaction. The absorbance value of each reaction system was measured at 420 nm and the amount of p-NP corresponding to different reaction times at specific substrate concentrations was calculated from the standard curve. The kinetic constants (Vmax and Km) of each reaction system were determined by fitting using the Hill function in the class of Growth/Inverse Curve for nonlinear fitting in the Origin Pro 8.0 software.
(§3) All experiments were set up in three parallels. The activities of the wild-type enzyme and five mutants were analyzed by ANOVA at the significance level of p < 0.05 using the SPSS 26.0 software, and multiple comparisons of the means were performed using Duncan’s method. The kinetic parameters of the enzymatic reactions for the wild-type enzyme and mutants catalyzing four substrates were subjected to independent sample t-tests at a significance level of p < 0.05, and the data were expressed as mean ± standard deviation. The experimental results were plotted using the Origin 2021 software.

[2] = substrate: O=[N+]([O-])c1ccc(O[C@@H]2O[C@H](CO)[C@@H](O)[C@H](O)[C@H]2O)cc1
Protocol: as §1, §2, §3

[3] = substrate: O=[N+]([O-])c1ccc(O[C@@H]2O[C@H](CO)[C@H](O)[C@H](O)[C@H]2O)cc1
Protocol: as §1, §2, §3

[4] = substrate: O=[N+]([O-])c1ccc(O[C@H]2O[C@H](CO)[C@@H](O)[C@H](O)[C@H]2O)cc1
Protocol: as §1, §2, §3

Protein	Km [1]	Vmax [1]	kcat [1]	kcat/Km [1]	Km [2]	Vmax [2]	kcat [2]	kcat/Km [2]	Km [3]	Vmax [3]	kcat [3]	kcat/Km [3]	Km [4]	Vmax [4]	kcat [4]	kcat/Km [4]
mutant III (Oenococcus oeni PSU-1; F133K) (protein, purified recombinant, pMG36e plasmid, expressed in Lactococcus lactis MG1363) MNKLFLPKNFLWGGAVAANQLEGGWDQDNKGLSVADIMTAGANGKAREITDGIVKGKYYPNHEAIDFYHRYKEDIKLFAEMGFKCFRTSIAWTRIFPNGDEEQPNEAGLKFYDQLFDECHKYGIEPVITLSHKEMPYHLVKAYGGWRNRKLIDFFVRFAKTVFKRYKDKVSYWMTFNEIDNQTDYTNRFLMATNSGLILKNDQSDAESLMYQAAHYELVASALAVKLGHSINPNFQIGCMINMTPVYPASSKPADIFQAEKAMQRRYWFSDIHALGKYPENMEVFLKQNNFRPDITSEDRIVLKEGTVDYIGLSYYNSMTVQSKESNPGFHFIGPELTVDNPNVEKSDWGWPIDPLGLRYSLNWLADHYHKPLFIVENGLGAYDKVENSQQIHDPYRIAYLKAHIQAMIDAVQEDGVKVIGYTPWGCIDLVSAGTGQMSKRYGFIYVDKDDQGKGSLKRLKKDSFFWYQQVIQSNGSQLD	1.24 ± 0.13 ^b mM	337 ± 4.61 µM/min/mg	310 ± 4.24 s⁻¹	250000 M⁻¹ s⁻¹	0.27 ± 0.05 ^b mM	533 ± 6.51 µM/min/mg	490 ± 5.98 s⁻¹	1.81e+06 M⁻¹ s⁻¹	0.52 ± 0.17 ^a mM	349 ± 4.83 µM/min/mg	321 ± 4.44 s⁻¹	617000 M⁻¹ s⁻¹	1.19 ± 0.23 ^b mM	25.8 ± 2.06 µM/min/mg	23.7 ± 1.89 s⁻¹	19900 M⁻¹ s⁻¹
mutant IV (Oenococcus oeni PSU-1; N181R) (protein, purified recombinant, pMG36e plasmid, expressed in Lactococcus lactis MG1363) MNKLFLPKNFLWGGAVAANQLEGGWDQDNKGLSVADIMTAGANGKAREITDGIVKGKYYPNHEAIDFYHRYKEDIKLFAEMGFKCFRTSIAWTRIFPNGDEEQPNEAGLKFYDQLFDECHKYGIEPVITLSHFEMPYHLVKAYGGWRNRKLIDFFVRFAKTVFKRYKDKVSYWMTFNEIDRQTDYTNRFLMATNSGLILKNDQSDAESLMYQAAHYELVASALAVKLGHSINPNFQIGCMINMTPVYPASSKPADIFQAEKAMQRRYWFSDIHALGKYPENMEVFLKQNNFRPDITSEDRIVLKEGTVDYIGLSYYNSMTVQSKESNPGFHFIGPELTVDNPNVEKSDWGWPIDPLGLRYSLNWLADHYHKPLFIVENGLGAYDKVENSQQIHDPYRIAYLKAHIQAMIDAVQEDGVKVIGYTPWGCIDLVSAGTGQMSKRYGFIYVDKDDQGKGSLKRLKKDSFFWYQQVIQSNGSQLD	1.17 ± 0.16 ^a mM	359 ± 3.88 µM/min/mg	330 ± 3.57 s⁻¹	282000 M⁻¹ s⁻¹	0.22 ± 0.03^a mM	841.6 ± 3.82 µM/min/mg	773.6 ± 3.52 s⁻¹	3.52e+06 M⁻¹ s⁻¹	0.87 ± 0.24 ^c mM	257 ± 5.47 µM/min/mg	237 ± 5.03 s⁻¹	272000 M⁻¹ s⁻¹	1.27 ± 0.19 ^c mM	19.9 ± 1.98 µM/min/mg	18.4 ± 1.82 s⁻¹	14400 M⁻¹ s⁻¹
wild-type enzyme (Oenococcus oeni PSU-1) (protein, purified recombinant BGL0224 (MT330371.1), plasmid pMG36e-0224, expressed in Lactococcus lactis MG1363) MNKLFLPKNFLWGGAVAANQLEGGWDQDNKGLSVADIMTAGANGKAREITDGIVKGKYYPNHEAIDFYHRYKEDIKLFAEMGFKCFRTSIAWTRIFPNGDEEQPNEAGLKFYDQLFDECHKYGIEPVITLSHFEMPYHLVKAYGGWRNRKLIDFFVRFAKTVFKRYKDKVSYWMTFNEIDNQTDYTNRFLMATNSGLILKNDQSDAESLMYQAAHYELVASALAVKLGHSINPNFQIGCMINMTPVYPASSKPADIFQAEKAMQRRYWFSDIHALGKYPENMEVFLKQNNFRPDITSEDRIVLKEGTVDYIGLSYYNSMTVQSKESNPGFHFIGPELTVDNPNVEKSDWGWPIDPLGLRYSLNWLADHYHKPLFIVENGLGAYDKVENSQQIHDPYRIAYLKAHIQAMIDAVQEDGVKVIGYTPWGCIDLVSAGTGQMSKRYGFIYVDKDDQGKGSLKRLKKDSFFWYQQVIQSNGSQLD	1.31 ± 0.22 ^c mM	308 ± 3.64 µM/min/mg	283 ± 3.34 s⁻¹	216000 M⁻¹ s⁻¹	0.33 ± 0.03 ^c mM	363 ± 4.13 µM/min/mg	334 ± 3.8 s⁻¹	1.01e+06 M⁻¹ s⁻¹	0.81 ± 0.16 ^b mM	231 ± 5.71 µM/min/mg	212 ± 5.25 s⁻¹	262000 M⁻¹ s⁻¹	1.07 ± 0.20 ^a mM	29.6 ± 1.83 µM/min/mg	27.2 ± 1.68 s⁻¹	25400 M⁻¹ s⁻¹
